Measurements: the supplement of paper PMC10065799, “High-throughput profiling of sequence recognition by tyrosine kinases and SH2 domains using bacterial peptide display” (eLife, 2023)

Columns and labels:
[1] = target: Fes (UniProt P07332); experiment: phosphorylation enrichment, bacterial display (enrichment ratio); higher = better substrate or ligand; peptides without Tyr show the background
[2] = target: Jak2 (UniProt O60674); experiment: as above
[3] = target: FGFR1 (UniProt P11362); experiment: as above
[4] = target: Fyn (UniProt P06241); experiment: as above
Chain of Fyn (P06241 whole entry, looked up): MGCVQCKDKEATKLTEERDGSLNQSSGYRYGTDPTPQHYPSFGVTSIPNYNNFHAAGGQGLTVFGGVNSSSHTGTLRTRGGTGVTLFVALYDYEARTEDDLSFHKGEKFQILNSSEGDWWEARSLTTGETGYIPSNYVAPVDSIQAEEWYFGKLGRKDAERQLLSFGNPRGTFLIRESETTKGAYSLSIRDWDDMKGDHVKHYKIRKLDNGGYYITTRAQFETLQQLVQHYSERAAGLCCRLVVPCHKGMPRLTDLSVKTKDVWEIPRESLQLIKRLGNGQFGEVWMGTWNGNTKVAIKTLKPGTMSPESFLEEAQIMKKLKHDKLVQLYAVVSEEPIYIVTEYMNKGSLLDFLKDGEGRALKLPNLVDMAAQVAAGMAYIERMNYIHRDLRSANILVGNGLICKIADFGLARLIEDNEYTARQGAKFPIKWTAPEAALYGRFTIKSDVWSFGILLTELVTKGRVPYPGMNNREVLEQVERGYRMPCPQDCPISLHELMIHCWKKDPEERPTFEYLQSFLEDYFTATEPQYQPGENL

[5] = target: EPHB2 (UniProt P29323); experiment: as above
Chain of EPHB2 (P29323 whole entry, looked up): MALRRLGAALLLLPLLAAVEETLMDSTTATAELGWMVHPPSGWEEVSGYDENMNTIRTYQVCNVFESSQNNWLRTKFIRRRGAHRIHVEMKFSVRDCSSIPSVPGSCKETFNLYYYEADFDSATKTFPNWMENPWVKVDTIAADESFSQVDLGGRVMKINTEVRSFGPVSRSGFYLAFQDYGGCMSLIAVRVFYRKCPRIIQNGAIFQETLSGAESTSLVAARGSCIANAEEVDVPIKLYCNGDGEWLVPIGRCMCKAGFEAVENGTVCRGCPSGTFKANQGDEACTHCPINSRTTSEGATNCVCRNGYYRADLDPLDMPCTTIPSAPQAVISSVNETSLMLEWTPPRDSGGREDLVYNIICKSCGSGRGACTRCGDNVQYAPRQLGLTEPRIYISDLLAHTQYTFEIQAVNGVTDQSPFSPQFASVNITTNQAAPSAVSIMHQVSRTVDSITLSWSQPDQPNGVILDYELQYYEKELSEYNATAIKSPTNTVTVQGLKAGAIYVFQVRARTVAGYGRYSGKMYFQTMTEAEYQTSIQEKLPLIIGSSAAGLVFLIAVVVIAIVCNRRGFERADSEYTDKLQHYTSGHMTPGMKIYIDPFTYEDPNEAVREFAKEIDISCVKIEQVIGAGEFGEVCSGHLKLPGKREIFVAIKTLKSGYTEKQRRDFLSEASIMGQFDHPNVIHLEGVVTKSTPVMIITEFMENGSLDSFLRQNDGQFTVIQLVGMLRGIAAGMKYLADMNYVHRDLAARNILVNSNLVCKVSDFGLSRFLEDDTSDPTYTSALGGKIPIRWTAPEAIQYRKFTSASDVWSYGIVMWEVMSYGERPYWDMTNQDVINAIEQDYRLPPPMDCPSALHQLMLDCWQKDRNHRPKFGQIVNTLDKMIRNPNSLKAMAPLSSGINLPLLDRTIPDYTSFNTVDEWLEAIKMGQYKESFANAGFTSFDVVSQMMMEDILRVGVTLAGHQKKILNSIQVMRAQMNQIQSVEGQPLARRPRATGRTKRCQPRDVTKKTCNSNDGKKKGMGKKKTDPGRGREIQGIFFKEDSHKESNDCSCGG

[6] = system: Fer (mouse); experiment: as above
[7] = target: Hck (UniProt P08631); experiment: as above
[8] = system: c-Src; experiment: as above
[9] = target: FGFR3 (UniProt P22607); experiment: as above
[10] = target: EPHB1 (UniProt P54762); experiment: as above
Chain of EPHB1 (P54762 whole entry, looked up): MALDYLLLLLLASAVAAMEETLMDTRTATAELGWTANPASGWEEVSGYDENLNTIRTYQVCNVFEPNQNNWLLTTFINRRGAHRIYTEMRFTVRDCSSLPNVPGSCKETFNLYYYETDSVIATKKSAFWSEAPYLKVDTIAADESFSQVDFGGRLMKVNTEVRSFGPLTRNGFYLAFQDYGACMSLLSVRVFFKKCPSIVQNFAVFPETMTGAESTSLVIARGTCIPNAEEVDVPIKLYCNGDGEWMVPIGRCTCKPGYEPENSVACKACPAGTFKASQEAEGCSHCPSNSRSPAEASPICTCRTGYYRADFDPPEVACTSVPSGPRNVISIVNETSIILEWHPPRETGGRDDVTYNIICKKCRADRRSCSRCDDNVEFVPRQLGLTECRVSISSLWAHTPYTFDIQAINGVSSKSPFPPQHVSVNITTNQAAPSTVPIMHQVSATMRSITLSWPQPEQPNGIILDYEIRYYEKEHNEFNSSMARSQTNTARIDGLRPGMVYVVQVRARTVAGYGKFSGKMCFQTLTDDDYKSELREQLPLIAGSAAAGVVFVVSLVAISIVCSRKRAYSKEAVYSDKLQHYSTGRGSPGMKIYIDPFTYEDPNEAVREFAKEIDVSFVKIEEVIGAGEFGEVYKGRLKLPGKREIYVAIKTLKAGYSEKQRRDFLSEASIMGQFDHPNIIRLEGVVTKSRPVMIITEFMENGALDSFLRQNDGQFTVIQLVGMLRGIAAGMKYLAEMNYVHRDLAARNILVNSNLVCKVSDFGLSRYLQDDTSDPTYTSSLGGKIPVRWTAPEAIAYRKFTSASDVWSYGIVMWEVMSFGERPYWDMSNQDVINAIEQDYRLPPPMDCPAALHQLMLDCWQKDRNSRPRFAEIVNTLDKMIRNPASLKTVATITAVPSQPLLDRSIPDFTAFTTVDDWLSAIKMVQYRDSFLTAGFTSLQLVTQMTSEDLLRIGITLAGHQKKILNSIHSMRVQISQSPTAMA

[11] = system: c-Abl (mouse); experiment: as above
[12] = system: AncSZ; experiment: as above
[13] = target: MERTK (UniProt Q12866); experiment: as above
Chain of MERTK (Q12866 whole entry, looked up): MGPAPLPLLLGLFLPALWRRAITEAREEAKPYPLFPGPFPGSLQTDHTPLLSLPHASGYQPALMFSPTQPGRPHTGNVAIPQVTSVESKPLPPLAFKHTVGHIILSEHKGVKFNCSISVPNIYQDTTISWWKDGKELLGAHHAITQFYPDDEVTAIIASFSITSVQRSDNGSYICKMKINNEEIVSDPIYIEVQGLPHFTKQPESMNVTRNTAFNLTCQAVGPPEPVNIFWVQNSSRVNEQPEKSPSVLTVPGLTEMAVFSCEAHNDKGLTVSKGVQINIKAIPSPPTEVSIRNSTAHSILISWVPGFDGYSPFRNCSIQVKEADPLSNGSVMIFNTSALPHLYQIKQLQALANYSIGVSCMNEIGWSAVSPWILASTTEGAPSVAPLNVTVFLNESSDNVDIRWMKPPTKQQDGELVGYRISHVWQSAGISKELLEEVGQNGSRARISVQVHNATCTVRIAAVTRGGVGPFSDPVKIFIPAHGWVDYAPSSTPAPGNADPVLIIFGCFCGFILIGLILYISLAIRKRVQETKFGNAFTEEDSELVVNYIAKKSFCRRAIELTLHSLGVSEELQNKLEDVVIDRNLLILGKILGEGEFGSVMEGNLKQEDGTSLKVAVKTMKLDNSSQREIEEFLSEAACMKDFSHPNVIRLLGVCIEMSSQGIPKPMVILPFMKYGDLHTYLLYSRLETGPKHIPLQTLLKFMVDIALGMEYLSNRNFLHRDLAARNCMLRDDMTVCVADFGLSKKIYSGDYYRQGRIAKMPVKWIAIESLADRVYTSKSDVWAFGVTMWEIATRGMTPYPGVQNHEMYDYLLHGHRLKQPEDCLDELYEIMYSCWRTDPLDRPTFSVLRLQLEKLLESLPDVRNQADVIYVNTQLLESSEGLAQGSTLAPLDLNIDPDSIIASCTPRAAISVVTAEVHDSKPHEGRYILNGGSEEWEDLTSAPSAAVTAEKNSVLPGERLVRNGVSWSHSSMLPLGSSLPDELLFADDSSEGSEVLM

[14] = target: Grb2 SH2 (UniProt P62993); experiment: SH2 binding enrichment of the phosphorylated peptide, bacterial display (enrichment ratio); higher = better substrate or ligand; peptides without Tyr show the background
[15] = target: SHP2-C SH2; experiment: as above
[16] = target: c-Src SH2; experiment: as above
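Throughout, for SH2 binding enrichment of the phosphorylated peptide, bacterial display: peptide library displayed on the E. coli surface as eCPX fusions, selected cells deep-sequenced, score is each peptide's frequency after selection divided by its frequency in the input.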
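Throughout, for phosphorylation enrichment, bacterial display: 11-residue human phosphosite peptides and single-mutation variants displayed on the E. coli surface, counted by deep sequencing, each peptide's frequency after selection divided by its frequency in the unselected input library; frequency after pTyr selection over input frequency; kinase dosed for 20-30% of maximal phosphorylation in three min.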

Chain of Jak2 (O60674 whole entry, looked up): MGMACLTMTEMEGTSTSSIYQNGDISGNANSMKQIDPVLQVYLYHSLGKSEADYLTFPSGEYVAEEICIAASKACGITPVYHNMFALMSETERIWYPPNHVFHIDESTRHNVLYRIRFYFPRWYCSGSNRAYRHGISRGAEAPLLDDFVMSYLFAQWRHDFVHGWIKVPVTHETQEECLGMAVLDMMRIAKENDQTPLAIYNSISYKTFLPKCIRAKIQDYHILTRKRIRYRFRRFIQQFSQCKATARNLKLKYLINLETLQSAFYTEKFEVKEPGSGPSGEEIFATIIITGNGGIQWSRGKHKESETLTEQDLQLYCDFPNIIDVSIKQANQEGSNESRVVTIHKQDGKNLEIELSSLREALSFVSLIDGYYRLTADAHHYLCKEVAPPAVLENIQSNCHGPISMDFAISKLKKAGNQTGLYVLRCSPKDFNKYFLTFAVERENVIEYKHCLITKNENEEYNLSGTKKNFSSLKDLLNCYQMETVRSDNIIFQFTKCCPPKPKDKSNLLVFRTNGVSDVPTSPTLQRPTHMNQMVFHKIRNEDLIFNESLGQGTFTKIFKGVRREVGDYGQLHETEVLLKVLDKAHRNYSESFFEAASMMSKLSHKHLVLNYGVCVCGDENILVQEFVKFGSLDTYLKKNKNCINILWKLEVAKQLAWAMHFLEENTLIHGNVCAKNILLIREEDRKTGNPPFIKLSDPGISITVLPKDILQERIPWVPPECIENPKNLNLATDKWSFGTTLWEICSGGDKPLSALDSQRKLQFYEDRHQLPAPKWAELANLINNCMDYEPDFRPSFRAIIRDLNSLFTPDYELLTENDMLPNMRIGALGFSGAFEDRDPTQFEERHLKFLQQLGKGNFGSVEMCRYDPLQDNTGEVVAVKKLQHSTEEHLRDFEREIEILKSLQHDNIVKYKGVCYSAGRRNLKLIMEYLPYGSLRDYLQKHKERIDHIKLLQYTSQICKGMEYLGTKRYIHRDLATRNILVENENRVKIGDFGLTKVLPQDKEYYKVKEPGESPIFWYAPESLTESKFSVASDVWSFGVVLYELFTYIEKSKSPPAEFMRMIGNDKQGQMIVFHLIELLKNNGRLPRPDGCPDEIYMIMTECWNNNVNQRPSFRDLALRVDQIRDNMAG

Row | Sequence | SH2 binding enrichment [14] | SH2 binding enrichment [15] | SH2 binding enrichment [16] | phosphorylation enrichment [1] | phosphorylation enrichment [2] | phosphorylation enrichment [3] | phosphorylation enrichment [4] | phosphorylation enrichment [5] | phosphorylation enrichment [6] | phosphorylation enrichment [7] | phosphorylation enrichment [8] | phosphorylation enrichment [9] | phosphorylation enrichment [10] | phosphorylation enrichment [11] | phosphorylation enrichment [12] | phosphorylation enrichment [13]
1 | GHLFAYDWISI [BEST1_Y227_YF] | 1.36 | 1.16 | 1.09 | 1.48 | 0.707 | 2.76 | 0.894 | 0.823 | 15.1 | 1.4 | 0.915 | 1.74 | 0.938 | 0.526 | 1.25 | 6.92
2 | FFRDGHMPRQF [GSS_Y270_Y270H_YF] | 0.741 | 0.611 | 0.494 | 0.612 | 0.491 | 0.392 | 0.374 | 0.363 | 0.355 | 0.357 | 0.365 | 0.487 | 0.367 | 0.505 | 0.472 | 0.324
3 | IRRQGYSHRIL [MYO3B_Y993] | 0.762 | 0.526 | 0.542 | 0.656 | 0.475 | 0.374 | 0.465 | 0.568 | 0.43 | 0.419 | 0.42 | 0.469 | 0.4 | 0.469 | 0.733 | 0.464
4 | GRVFVYRLSEQ [ITGAE_Y551_YF] | 1.38 | 1.87 | 0.857 | 1.02 | 0.927 | 0.553 | 0.534 | 0.511 | 0.425 | 0.492 | 0.585 | 0.663 | 0.494 | 0.655 | 0.81 | 0.404
5 | FPPISYLNAIS [MVD_Y276] | 0.668 | 0.771 | 0.491 | 0.675 | 0.51 | 0.473 | 0.488 | 0.472 | 0.408 | 0.465 | 0.466 | 0.522 | 0.383 | 0.664 | 0.813 | 0.49

Second part, led by results:

Row | SH2 binding enrichment [14] | SH2 binding enrichment [15] | SH2 binding enrichment [16] | Sequence | phosphorylation enrichment [1] | phosphorylation enrichment [2] | phosphorylation enrichment [3] | phosphorylation enrichment [4] | phosphorylation enrichment [5] | phosphorylation enrichment [6] | phosphorylation enrichment [7] | phosphorylation enrichment [8] | phosphorylation enrichment [9] | phosphorylation enrichment [10] | phosphorylation enrichment [11] | phosphorylation enrichment [12] | phosphorylation enrichment [13]
6 | 0.801 | 0.979 | 0.707 | HAVYIYDICHV [TWNK_Y508_V507I] | 1.77 | 0.989 | 1.57 | 7.62 | 8.7 | 9.37 | 5.31 | 5.31 | 1.65 | 8.01 | 4.12 | 2.46 | 6.7
7 | 0.697 | 0.675 | 0.42 | LRGEDYGFSVD [PRKCI_Y430] | 1.35 | 1 | 0.587 | 0.518 | 0.668 | 0.636 | 0.58 | 0.512 | 0.835 | 0.686 | 1.12 | 1.1 | 0.623
8 | 1.07 | 0.761 | 0.786 | TDEYEYDELIV [TGM1_Y136] | 1.2 | 0.785 | 0.664 | 0.57 | 0.566 | 0.526 | 0.775 | 0.454 | 0.805 | 0.588 | 0.705 | 1.3 | 0.436
